Measurements published in the supplement of paper PMC12764529.
± gives the half width of the 95% confidence interval.

Tests used:
[1] = folding stability dG unfold from trypsin proteolysis; higher = more stable
Experimental: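 Folding stability of de novo designed mini-proteins (<80 aa, no Cys; designed by TrROS, TrMRF, ProteinMPNN and the joint model) was measured by cDNA display proteolysis with trypsin and chymotrypsin. Each protease was used at 11 concentrations in a threefold dilution series plus a no-protease condition. K50 was inferred by Bayesian fitting of sequencing counts, and dG unfold was derived against a sequence-predicted unfolded-state K50 (Tsuboyama et al. method). Sequences shown include variable-length N-terminal GS-type padding (SAGGSAGG...) inside a display construct carrying a PA tag. Rows were kept only if the AF2 dimer inter-PAE was >15, to exclude likely homo-oligomers.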

[2] = folding stability dG unfold (combined trypsin and chymotrypsin); higher = more stable
Procedure, shortened: (§1)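 Digests were run with trypsin and chymotrypsin at 11 concentrations in threefold dilutions, plus a no-protease condition, on designed mini-proteins in a PA-tagged cDNA display construct. The mini-proteins were under 80 residues, had no cysteine, and were kept only when AlphaFold2 dimer inter-PAE was above 15. After sequencing, Bayesian fitting of the counts gave K50, from which unfolding free energy was derived against a sequence-predicted unfolded-state K50 and a shared folded-state K50, per protease or combined.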

[3] = folding stability dG unfold from chymotrypsin proteolysis; higher = more stable
Procedure, shortened: as §1

Sequence	folding stability dG unfold [1] [kcal/mol]	folding stability dG unfold [2] [kcal/mol]	folding stability dG unfold [3] [kcal/mol]
ATVTITDVSFDPETNTITVTVTVTGPDGTTTTFTATFRIEPAPPPAPPAPVYVVDDDGKVYNLDTGEWKDVS [r1_270_TrROS_Hall]	2.12 ± 0.048	2.21 ± 0.054	2.3 ± 0.037
ATVTVEKLPDGYRVTVTIGATYIDPETGKPVELSAPVTAFVPPEVPDPEVAAKRAAAEALAEFLAALPEGGS [r1_414_TrMRF]	2 ± 0.057	1.85 ± 0.091	1.74 ± 0.023
DWLIRIKFTYKGPDGNKHEMKIIVRVPESPEQAKEEVEDIARMIMEEQGYPPENIKKIKVEVIPPGEELTPS [r1_159_TrROS]	3.46 ± 0.1	3.91 ± 0.14	4.203 ± 0.041
EAFEKAIEAAIEAAEKGEKETEITLPLPDGKAIRVHATVEVKDGKPVRVDIHVELYGPNNVPYPFTLTITAS [r1_254_TrMRF]	2.37 ± 0.13	2.38 ± 0.18	2.83 ± 0.13
KTYTIDEIAEKLGMSKEELKNMSAEEIKEALKKLLPPEEIEKVEISYNEKDKKVTITVTLKNGEKVEITIDS [r1_340_TrROS_Hall]	4.04 ± 0.71		5.06 ± 0.23
SAGGDVGLEEKAREIAEELREEISKKLGVNVKVTEVKVEYDPKTGKYTVTVTITLPGGETITITVPESAGGS [r8_372_JUSTAS]	3.85 ± 0.32		4.36 ± 0.54
SAGGKPKKKPPPVIEIVDIRVEYDPETKEVRITVKIRLPNGETLTLTITVPPGTTLEELLEKLKELLSSAGG [r13_578_TrROS_Hall]	4.11 ± 0.61		2.71 ± 0.11
SAGGSAGGDPNKPPPPKQIEIPIPPDNITDVEPNPDGFYFMEFNLPDGDSITIIVYPDGNIHIMSAGGSAGG [r6_119_TrROS]	2.83 ± 0.28		4.25 ± 0.34
SAGGSAGGSAGGKKKLKIKIEIKIEEKIKKTPNGKLEKEKKIEITKIIEIEPDSPLLKKLSAGGSAGGSAGG [r7_889_TrROS_Hall]	2.17 ± 0.14		0.948 ± 0.29
SAGGSAGGSAGMITIYAPPSVPVEEVREEVKEKIKKENPNDPKEVKGVEVDPNGSLEELESAGGSAGGSAGG [r17_43_JUSTAS]	-0.286 ± 0.12		-0.655 ± 0.31
SAGSSSTTIEVPVGDPAKAGSVEEYKEKLIKEGFSESDVPTATPLPDGTRLVTFKSPSTTVTLVVPLGESAG [r5_144_JUSTAS]	-0.341 ± 0.056	-0.846 ± 0.2	
SAGSTVEVLEERPLEDGSVLVRVRVDDAAPDGSPVAVVDVLVLPGGEAVMTFPDGTPVRLPLSELGLPPSAG [r5_137_JUSTAS]	0.108 ± 0.14	-0.319 ± 0.2	
SAGVTVERKPGDGSLTVTVPADDGPLTIEVDLLPNTGTLKATVTYDDGTPATYTFPGGTLEDIIERLHSAGG [r19_159_TrMRF]	-0.0867 ± 0.088	-0.153 ± 0.22	
SAKIPAEEIAEEIAENFGFEPVEVDEIDPDEGKIIIRFPGWQIEVEVDPEDGEIEIEMEFYDPEDGKPFSAG [r14_270_TrROS]	0.46 ± 0.045	-0.0386 ± 0.18	
SAKLTPEEIEELAEKLAKELAEKEGIEKVEVKVEKKEDGKVTVEIRFEKNKKTIRIEFENGEVKIVEIESAG [r14_925_TrROS_Hall]	2.62 ± 0.39	2.97 ± 0.72	
SAMDIEIEPTEGMMEIKLPGKEIHIMQHPNYMHIQIKYPEGEPVSIPIDPNSPPEDMIDNLLKLLEKAGSAG [r14_618_TrROS]	0.425 ± 0.042	-0.499 ± 0.55	
SAMLVVLKDPKTGKLILVDPEQLSPEYLERGVEPVREIPPLEVVEVESEEEAEEIRKKYPEKILVTLGPSAG [r14_638_JUSTAS]	0.68 ± 0.1	-0.121 ± 0.26	
SANFDKAPPIEVKTEVSSFPADEEKIDPKTGKKSKRKRTITPVTVTKDGKTYTSTTTTYPDGSTETTTSSAG [r14_225_JUSTAS]	-0.0456 ± 0.2	-0.249 ± 0.24	

Sequence	folding stability dG unfold [1] [kcal/mol]	folding stability dG unfold [2] [kcal/mol]	folding stability dG unfold [3] [kcal/mol]
SAPDNIKVDINIERNPEDGHIRVEMEIEYPDGNEVYHSAWIDPDNGKIEIDVQVPNGKQIAEETIQIKPSAG [r14_524_TrROS]	0.166 ± 0.097	< -1	
SAPVKDKNGKKREVEIHIWVPEEERKKNGTPEQIKWLARERARAAGLKPDRIKEVKIKIMPPEDMPEGFSAG [r14_446_TrROS]	-0.729 ± 0.54	< -1	
SDLRNMPIEELAKRIAREHGIEDVKVEVSRTGDSLTIPIEIRDPEQGMKYKVMIMVDPPDDGRIGIGVERSA [r9_1042_TrROS]	0.275 ± 0.29	0.0221 ± 0.42	
SETVTIEVEIEVKLPDGSTYRVRLTVEFDKETGKITLKMTVEYNGKTYEVELSEEEIKALLDELLKKLGLSA [r9_1136_TrROS_Hall]	4.22 ± 0.29	> 6	
SFRIEPDPDGTVTVRIPKDFPNKPAEEIADYIQKAFGPGMKIDKDIKIEPDPENGWVEITVKVKLPPGAKSA [r9_1011_TrROS]	0.913 ± 0.16	0.0899 ± 0.33	
SIERPGGEPVTLTVTVERPPGVRTTRTFTTPASELEARRGRDVTDEEIIAAVKEELAAAGDRALAVTVDRTS [r1_338_JUSTAS]	-0.807 ± 0.68	< -1	
SKEILEAEVEEILKLLPESLKPDVPRELVFPGVKITVTKYEPVDKNKGGKKPTTVVTIELPEGPVTIPLPSA [r9_279_JUSTAS]	0.548 ± 0.034	-0.531 ± 0.18	
SKTVEIPIRNPNGMQVNIMANPEKGKVMIHMGNNMPFENIKKALRELLPPGKDVDITTHPNGMAVIELKPSA [r9_933_TrROS]	-0.277 ± 0.19	-0.734 ± 0.43	
SMEIKVTVEEKDGKKYVTIEIKLSEEELKGKELTEEEIEELARELAKKLGIKEVKIERLPNGTYRIVIELSA [r9_883_TrROS_Hall]	4.47 ± 0.39	> 6	
SMKLKITIPLPGNNEINIEIEIKPYFDPNTKKLYFEANIKVTFTYYIPGFDKPFSFTSEFKFRFELSDDLSA [r9_140_TrMRF]	4.46 ± 0.16	> 6	
SMLTSPDGTSVTIETKVSPSAGPLPPFFEQTYDPSKDTITVNAPASPEEVAAIRAAPGLETLAVTFTPAESA [r9_827_JUSTAS]	-0.874 ± 0.23	< -1	
SMRLVPVPVRSADGRASVDEIRAAIREALPEGLRVDFGEEFIERALREAERRYGGRLRPDDFPILVPVLGSA [r9_197_TrMRF]	-0.209 ± 0.15	< -1	
SMYRIEVVRDGKPIPREAVEAAAEAIERARGRPISPEALARELASVPNTVVTVEAYDEPGKPLGTLTFAESA [r9_1045_TrMRF]	-0.253 ± 0.17	-0.703 ± 0.37	
SPIILPGASTVTINATVTVEPRDPATGTVLSSRDLPVPVTVTTNADGTVTITVDVPADVPADAAVTVDLTSA [r9_90_JUSTAS]	0.239 ± 0.018	-0.338 ± 0.1	
SPKIEIEPMPPNMFIAKIRDPEKNKKVSIHIPPNMPPGQPMQVYDPDKPKWVPFNEIEELLKKGLPVEIYSA [r9_250_TrROS]	0.0989 ± 0.23	-0.496 ± 0.98	
SPLTPEQIEELAKEIAQEFPNVKVKIYPNDEPIEIKAPGAEIEIWPPPGEFYIQIEFPGNGKPKQIPIPPSA [r9_1062_TrROS]	0.00765 ± 0.051	-0.583 ± 0.25	
SYRPITIQMPSPEDLKKLEEAFEDDGFENVNIHRDPPGWHTITITQKGPPEQLQDRIREAFDENGFQIQPSA [r9_1003_TrROS]	0.0855 ± 0.11	< -1	
